Assay results: doi:10.1101/2025.07.11.664294 (2025)
Bridges are numbered along the chain shown (N, C = ends).

Target: Neuropilin-1 (NRP-1) 22-644 (Homo sapiens, UniProt O14786)
Assay: SPR

Chain of Neuropilin-1 (NRP-1) 22-644 (O14786 22-644): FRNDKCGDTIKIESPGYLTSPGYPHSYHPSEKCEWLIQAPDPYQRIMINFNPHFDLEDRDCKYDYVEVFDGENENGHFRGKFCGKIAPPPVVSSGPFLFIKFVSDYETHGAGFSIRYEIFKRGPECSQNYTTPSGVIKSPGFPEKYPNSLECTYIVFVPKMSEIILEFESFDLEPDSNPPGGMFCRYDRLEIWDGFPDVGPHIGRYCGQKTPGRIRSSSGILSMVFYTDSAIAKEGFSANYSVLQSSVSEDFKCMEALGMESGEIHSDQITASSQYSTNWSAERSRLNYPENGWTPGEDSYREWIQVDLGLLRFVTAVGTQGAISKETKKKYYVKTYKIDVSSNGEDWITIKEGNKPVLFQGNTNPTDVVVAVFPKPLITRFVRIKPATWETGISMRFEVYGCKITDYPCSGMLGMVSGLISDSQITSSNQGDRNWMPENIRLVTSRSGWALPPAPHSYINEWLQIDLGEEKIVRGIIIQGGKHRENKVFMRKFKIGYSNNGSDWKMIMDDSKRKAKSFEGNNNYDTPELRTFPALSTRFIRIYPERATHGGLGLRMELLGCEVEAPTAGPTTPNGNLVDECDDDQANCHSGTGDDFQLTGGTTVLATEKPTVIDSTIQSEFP

B1: P78 (Ctx fragment) 27-34 (peptide)
chain: Ac-KCYGPQCL-NH2
modifications: disulfide 2-7
SMILES: CC(=O)N[C@@H](CCCCN)C(=O)N[C@H]1CSSC[C@@H](C(=O)N[C@@H](CC(C)C)C(N)=O)NC(=O)[C@H](CCC(N)=O)NC(=O)[C@@H]2CCCN2C(=O)CNC(=O)[C@H](Cc2ccc(O)cc2)NC1=O
Work on B1 yielded a Kd of 267 µM.
